This passage reports protein stability index results from the supplement of paper PMC10724198.

± gives the standard deviation of the averaged measurements.

This data set deals with Saccharomyces cerevisiae. The experiment in a line: protein stability index of tFT-peptide fusion (C-terminal peptide) (PSI (0-1 scale)); higher = more stable (slower turnover). As to conditions: temperature: 30 C. The procedure: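 MPS profiling in S. cerevisiae of the yeast C-terminome library: the last 12 aa of each annotated ORF are fused to the C-terminus of a sfGFP-mCherry timer, after a GGGS linker. Cells are FACS-sorted into 8 mCherry/sfGFP bins and deep-sequenced. PSI runs from 0 (unstable) to 1 (stable); wild type and das1Δ backgrounds, two technical replicates each.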

The mark [1] stands for this setting: genetic background: das1 deletion.

With NYLKKHSEKQDA [ATP19 C-terminal 12 aa], the protein stability index came out at 0.709 ± 0.022 under setting [1] and 0.723 ± 0.066 (genetic background: wild type).
The corresponding values for PEALIKSMTSKL [SPS19 C-terminal 12 aa] are 0.712 ± 0.038 and 0.725 ± 0.18.
In the same order, the values of PEKGSGFNTNLG [DCS2 C-terminal 12 aa] are 0.6973 ± 0.0014 and 0.738 ± 0.025.
The corresponding values for PKRGGLFGFGRL [JIP4 C-terminal 12 aa] are 0.7853 ± 0.0046 and 0.762 ± 0.023.
PLGEKFLNISNS [TEN1 C-terminal 12 aa] gave a protein stability index under setting [1] of 0.7047 ± 0.0035 and a protein stability index (genetic background: wild type) of 0.694 ± 0.013.
In the same order, the values of PLMTVLGLEKKK [DPC13 C-terminal 12 aa] are 0.703 ± 0.021 and 0.675 ± 0.064.
In the same order, the values of PLTRFHSCPITA [ECM13 C-terminal 12 aa] are 0.275 ± 0.035 and 0.301 ± 0.013.
In the same order, the values of PPASESNKGINE [YDR008C C-terminal 12 aa] are 0.694 ± 0.013 and 0.661 ± 0.032.
PPKSIFDTDDDD [RCN1 C-terminal 12 aa]: the protein stability index was 0.741 ± 0.025 under setting [1] and 0.714 ± 0.054 (genetic background: wild type).
The corresponding values for PSPGFHMYGCHT [YLR156W C-terminal 12 aa] are 0.708 ± 0.022 and 0.695 ± 0.0084.
The corresponding values for PSYAKVQEFATP [NEO1 C-terminal 12 aa] are 0.71 ± 0.0097 and 0.684 ± 0.0059.
Take PVTPAVSKRYQP [YER084W C-terminal 12 aa]: the protein stability index by setting is: under setting [1], 0.715 ± 0.0072; (genetic background: wild type) 0.6939 ± 0.003.
In the same order, the values of QAIEDKLNKMSR [BIL1 C-terminal 12 aa] are 0.686 ± 0.026 and 0.683 ± 0.018.
In the same order, the values of “QALFVLYYLYSI [YDR406W-A C-terminal 12 aa]” are 0.428 ± 0.018 and 0.445 ± 0.013.
The corresponding values for QDKQVKSWWRFW [CBP4 C-terminal 12 aa] are 0.762 ± 0.016 and 0.7144 ± 0.0053.
Take QEANDDLMIDVN [ENP1 C-terminal 12 aa]: the protein stability index came to 0.678 ± 0.045 under setting [1] and 0.699 ± 0.015 (genetic background: wild type).
In the same order, the values of QGQKFIHDNNTN [YMR245W C-terminal 12 aa] are 0.673 ± 0.031 and 0.646 ± 0.018.
As to QHIKTHKKHGDI [MSN2 C-terminal 12 aa], the protein stability index reads like this: under setting [1], 0.67783 ± 0.00033; (genetic background: wild type) 0.667 ± 0.014.
The corresponding values for QIDKLLTVLDSL [RTP1 C-terminal 12 aa] are 0.717 ± 0.023 and 0.691 ± 0.038.
The corresponding values for QIIYYIARSKGL [MEC3 C-terminal 12 aa] are 0.665 ± 0.058 and 0.668 ± 0.035.
Sequence QIRSVFSGVYGG [ASP3-1 C-terminal 12 aa] displayed a protein stability index under setting [1] of 0.691 ± 0.013 and a protein stability index (genetic background: wild type) of 0.689 ± 0.049.
The corresponding values for QKAKLNKLDSKK [NOP7 C-terminal 12 aa] are 0.677 ± 0.0057 and 0.704 ± 0.068.
The corresponding values for QKEPNDQIDVEE [GPN3 C-terminal 12 aa] are 0.673 ± 0.025 and 0.698 ± 0.042.
In the same order, the values of QKRIQRKKMNEM [AIM23 C-terminal 12 aa] are 0.71243 ± 0.0002 and 0.663 ± 0.014.
On to QKYLEELQKKKF [YET2 C-terminal 12 aa], for which the protein stability index is 0.712 ± 0.023 under setting [1] and 0.7424 ± 0.0019 (genetic background: wild type).
The corresponding values for QLIDIAKKMGIL [BIR1 C-terminal 12 aa] are 0.678 ± 0.051 and 0.276 ± 0.0083.
In the same order, the values of QLQMILFGKKFK [PET9 C-terminal 12 aa] are 0.711 ± 0.016 and 0.701 ± 0.021.
In the same order, the values of QNDRRSVLKKYI [YER010C C-terminal 12 aa] are 0.69 ± 0.025 and 0.666 ± 0.021.
Consider QNQDEPITENFE [TUB2 C-terminal 12 aa], for which the protein stability index was found to be 0.718 ± 0.016 under setting [1] and 0.718 ± 0.025 (genetic background: wild type).
The corresponding values for QPKIEINVDQYD [SPC1 C-terminal 12 aa] are 0.691 ± 0.047 and 0.6919 ± 0.0036.
The corresponding values for QQPNQNQNQNSK [FIP1 C-terminal 12 aa] are 0.738 ± 0.049 and 0.676 ± 0.019.
In the same order, the values of QQSPHPVVDNDK [KIP2 C-terminal 12 aa] are 0.6922 ± 0.0065 and 0.682 ± 0.035.
For the sequence QRIHQTLEVPNL [FAR1 C-terminal 12 aa], the protein stability index worked out at 0.708 ± 0.01 under setting [1] and 0.692 ± 0.06 (genetic background: wild type).
For QRTVKQEGNKGG [GZF3 C-terminal 12 aa], the protein stability index by setting is: under setting [1], 0.712 ± 0.021; (genetic background: wild type) 0.69986 ± 0.00047.
In the same order, the values of QSILACCQESNK [LCB1 C-terminal 12 aa] are 0.702 ± 0.0093 and 0.645 ± 0.0071.
In the same order, the values of QSPLMDMLAPQL [TOM6 C-terminal 12 aa] are 0.706 ± 0.015 and 0.7117 ± 0.00029.
The corresponding values for QSQYPDVGIPAI [YAR023C C-terminal 12 aa] are 0.7082 ± 0.0034 and 0.669 ± 0.011.
As to QSSHFGQVDEII [DUR3 C-terminal 12 aa], the protein stability index runs as follows: under setting [1], 0.684 ± 0.046; (genetic background: wild type) 0.726 ± 0.04.
Consider “QSTAVFFTNKTD [YER076W-A C-terminal 12 aa]”, for which the protein stability index worked out at 0.707 ± 0.018 under setting [1] and 0.684 ± 0.046 (genetic background: wild type).
In the same order, the values of QTDGMGLVSWWE [RPC25 C-terminal 12 aa] are 0.751 ± 0.011 and 0.749 ± 0.041.
In the same order, the values of QTILFAAFLPPA [GPI18 C-terminal 12 aa] are 0.696 ± 0.025 and 0.682 ± 0.008.
In the same order, the values of QTTFLATAIVLC [YOR331C C-terminal 12 aa] are 0.441 ± 0.018 and 0.4167 ± 0.0014.
For the sequence QTTRMLNDLIVS [MGA2 C-terminal 12 aa], the protein stability index reads like this: under setting [1], 0.664 ± 0.01; (genetic background: wild type) 0.667 ± 0.017.
In the same order, the values of QVHPSRQELSFT [DON1 C-terminal 12 aa] are 0.7176 ± 0.0016 and 0.701 ± 0.069.
The corresponding values for QVTWHKHSPRIQ [YKL202W C-terminal 12 aa] are 0.713 ± 0.024 and 0.7036 ± 0.0056.
In the same order, the values of RCSETKQQVMNS [BTT1 C-terminal 12 aa] are 0.669 ± 0.033 and 0.691 ± 0.0026.
REGVVPPVGITN [EGO4 C-terminal 12 aa] came in with a protein stability index under setting [1] of 0.706 ± 0.031 and a protein stability index (genetic background: wild type) of 0.66 ± 0.024.
The corresponding values for “RELREHTKLLHS [YIL082W-A C-terminal 12 aa]” are 0.6879 ± 0.0029 and 0.597 ± 0.021.
The corresponding values for REVDDRFKVIYV [VPS35 C-terminal 12 aa] are 0.692 ± 0.018 and 0.695 ± 0.029.
Take RFAKGGKFVEVD [ATP18 C-terminal 12 aa]: the protein stability index turned out to be 0.6904 ± 0.001 under setting [1] and 0.6675 ± 0.0047 (genetic background: wild type).
